The source of these data is paper PMC6090015, “Identification and characterization of a novel β-D-galactosidase that releases pyruvylated galactose” (Scientific Reports, 2018).

In data set [1] the target is T1, ORF1119 (PvGal-ase) (Bacillus sp. HMA207, UniProt Z9IVQ1LJN5, E163A).
T1 construct: full length 469 aa, no signal peptide; pET-32b, N-terminal His5 tag, E. coli BL21(DE3)CodonPlus delta-lacZ, Ni-purified
In words: X-ray crystal structure, […] Å. Format: binding. Particulars: co-crystallised with pNP-β-D-PvGal, pNP lost during crystal growth; active site; phosphate-citrate pH 5.2.

For data set [2], the system named is T2, CC1(C(=O)O)OC[C@H]2O[C@@H](Oc3ccc([N+](=O)[O-])cc3)[C@H](O)[C@@H](O)[C@H]2O1.
T2 construct: full length 469 aa, no signal peptide; pET-32b, N-terminal His5 tag, E. coli BL21(DE3)CodonPlus delta-lacZ, Ni-purified
Put plainly: discontinuous pNP release, A405. Format: biochemical, Bacillus sp. HMA207. The note with it: 50 mM HEPES-NaOH pH 7.5, 37 °C. An excerpt:
(§1) discontinuous pNP release, A405 on ORF1119 (PvGal-ase)

Data set [3] deals with T3, C[C@H]1O[C@@H](Oc2ccc([N+](=O)[O-])cc2)[C@H](O)[C@@H](O)[C@H]1O.
T3 construct: full length 469 aa, no signal peptide; pET-32b, N-terminal His5 tag, E. coli BL21(DE3)CodonPlus delta-lacZ, Ni-purified
Put plainly: discontinuous pNP release, A405. Format: biochemical, Bacillus sp. HMA207. The note with it: 50 mM HEPES-NaOH pH 7.5.
Text: as §1

Data set [4] deals with T4, O=[N+]([O-])c1ccc(O[C@@H]2O[C@H](CO)[C@@H](O)[C@H](O)[C@H]2O)cc1.
T4 construct: full length 469 aa, no signal peptide; pET-32b, N-terminal His5 tag, E. coli BL21(DE3)CodonPlus delta-lacZ, Ni-purified
In words: discontinuous pNP release, A405. Format: biochemical, Bacillus sp. HMA207. Particulars: 50 mM HEPES-NaOH pH 7.5.
Text: as §1

The test system of data set [5] is T5, O=[N+]([O-])c1ccc(O[C@@H]2O[C@H](CO)[C@H](O)[C@H](O)[C@H]2O)cc1.
T5 construct: full length 469 aa, no signal peptide; pET-32b, N-terminal His5 tag, E. coli BL21(DE3)CodonPlus delta-lacZ, Ni-purified
In words: discontinuous pNP release, A405. Format: biochemical, Bacillus sp. HMA207. Particulars: 50 mM HEPES-NaOH pH 7.5.
Text: as §1

One may read the Km as the substrate concentration at which the rate is half of its maximum. Broadly, the kcat is the number of substrate molecules converted per active site and unit of time at saturation. A word on the kcat/Km: it is the second-order rate constant that governs catalysis at low substrate concentration.

On to `C[C@@]1(C(=O)O)OC[C@H]2OC(O)[C@H](O)[C@@H](O)[C@H]2O1` (stereo partly shown) [PvGal], for which the “X-ray crystal structure, 2.45 Å” value in data set [1] is on record as “In the complex structure, clear electron density is observed for the PvGal ligand”.
Take “ORF1119 (PvGal-ase) (Bacillus sp. HMA207)”: the Km in data set [2] (37.0 °C) was found to be 810 ± 140 µM; in data set [3] it was 1900 ± 100 µM; in data set [4], 7400 ± 400 µM; in data set [5], 3300 ± 400 µM. Also, the kcat in data set [2] (37.0 °C) turned out to be 5.2 ± 0.2 s⁻¹; in data set [3], 1.6 ± 0.02 s⁻¹; in data set [4], 0.10 ± 0.002 s⁻¹; in data set [5] it was 0.20 ± 0.005 s⁻¹. The kcat/Km in data set [2] (37.0 °C) turned out to be 6300 M⁻¹ s⁻¹; in data set [3], 830 M⁻¹ s⁻¹; in data set [4], 14 M⁻¹ s⁻¹; in data set [5], 60 M⁻¹ s⁻¹.
Consider “ORF1119 (PvGal-ase) (Bacillus sp. HMA207; K434A)”, for which, in data set [2], the Km is 730 ± 120 µM, the kcat worked out at 8.8 ± 0.2 s⁻¹ and the catalytic efficiency (kcat/Km) was 12000 M⁻¹ s⁻¹.
For “ORF1119 (PvGal-ase) (Bacillus sp. HMA207; N430A)”, in data set [2], the Km is 900 ± 160 µM, the kcat amounted to 7.0 ± 0.2 s⁻¹ and the kcat/Km amounted to 7700 M⁻¹ s⁻¹.
On to “ORF1119 (PvGal-ase) (Bacillus sp. HMA207; N430Y)”, for which, in data set [2], the Km came out at 370 ± 80 µM, the kcat stood at 7.7 ± 0.2 s⁻¹ and the catalytic efficiency (kcat/Km) amounted to 21000 M⁻¹ s⁻¹.
For “ORF1119 (PvGal-ase) (Bacillus sp. HMA207; S427A)”, in data set [2], the Km is 1920 ± 450 µM, the kcat is 4.4 ± 0.3 s⁻¹ and the kcat/Km came out at 2300 M⁻¹ s⁻¹.
With “ORF1119 (PvGal-ase) (Bacillus sp. HMA207; S427E)”, in data set [3], the Michaelis-Menten constant (Km) came out at 470 ± 60 µM, the kcat is 0.91 ± 0.02 s⁻¹ and the kcat/Km came out at 2000 M⁻¹ s⁻¹. Besides, in data set [4], the Km turned out to be 460 ± 90 µM, the kcat turned out to be 0.05 ± 0.001 s⁻¹ and the kcat/Km amounted to 98 M⁻¹ s⁻¹. Also, in data set [5], the Km turned out to be 890 ± 90 µM, the kcat worked out at 0.13 ± 0.002 s⁻¹ and the kcat/Km worked out at 149 M⁻¹ s⁻¹.
As to “ORF1119 (PvGal-ase) (Bacillus sp. HMA207; Y436A)”, in data set [2], the Michaelis-Menten constant (Km) worked out at 800 ± 180 µM, the turnover number (kcat) was 0.68 ± 0.03 s⁻¹ and the specificity constant (kcat/Km) is 860 M⁻¹ s⁻¹.
As for “ORF1119 (PvGal-ase) (Bacillus sp. HMA207; Y436F)”, in data set [2], the Km came out at 530 ± 90 µM, the kcat is 6.5 ± 0.2 s⁻¹ and the kcat/Km was 12000 M⁻¹ s⁻¹.
